This is an account of results in publication PMC6652007, “Metabolic engineering of Clostridium thermocellum for n-butanol production from cellulose” (Biotechnology for Biofuels, 2019).

The subject of data set [1] is CC(O)CC(=O)SCCNC(=O)CCNC(=O)[C@H](O)C(C)(C)COP(=O)(O)OP(=O)(O)OC[C@H]1O[C@@H](n2cnc3c(N)ncnc32)[C@H](O)[C@@H]1OP(=O)(O)O. Nature of the data set: purified protein. To be noted: 0.3 mM NADH, coupled with Ter, 100 mM MOPS-KOH pH 7.5, 55 °C.
Data set [2] relates to T1, CC(=O)CC(=O)SCCNC(=O)CCNC(=O)[C@H](O)C(C)(C)COP(=O)(O)OP(=O)(O)OC[C@H]1O[C@@H](n2cnc3c(N)ncnc32)[C@H](O)[C@@H]1OP(=O)(O)O.
T1 construct: His-tagged (vector pD861-CH), codon-optimised, expressed in E. coli BL21(DE3)
Nature of the data set: NADH oxidation, A340. The note with it: 0.3 mM NADH, 100 mM MOPS-KOH pH 7.5, 55 °C. The data set is classed as biochemical, Thermoanaerobacterium thermosaccharolyticum. An excerpt: NADH oxidation, A340 on Tt_Hbd

In data set [3] the test system is T2, NC(=O)C1=CN([C@@H]2O[C@H](COP(=O)(O)OP(=O)(O)OC[C@H]3O[C@@H](n4cnc5c(N)ncnc54)[C@H](OP(=O)(O)O)[C@@H]3O)[C@@H](O)[C@H]2O)C=CC1.
T2 construct: His-tagged (vector pD861-CH), codon-optimised, expressed in E. coli BL21(DE3)
Briefly: NAD(P)H oxidation, A340. The data set is classed as biochemical, Thermoanaerobacterium thermosaccharolyticum. The note with it: acetoacetyl-CoA as substrate, 100 mM MOPS-KOH pH 7.5, 55 °C, varied: cofactor. From the text:
(§1) NAD(P)H oxidation, A340 on Tt_Hbd

For data set [4], the system named is T3, NC(=O)C1=CN([C@@H]2O[C@H](COP(=O)(O)OP(=O)(O)OC[C@H]3O[C@@H](n4cnc5c(N)ncnc54)[C@H](O)[C@@H]3O)[C@@H](O)[C@H]2O)C=CC1.
T3 construct: His-tagged (vector pD861-CH), codon-optimised, expressed in E. coli BL21(DE3)
Briefly: NAD(P)H oxidation, A340. The data set is classed as biochemical, Thermoanaerobacterium thermosaccharolyticum. The note with it: acetoacetyl-CoA as substrate, 100 mM MOPS-KOH pH 7.5, 55 °C, varied: cofactor.
From the text: as §1

Broadly, the Km is the substrate concentration at which the rate is half of its maximum. By Vmax is commonly meant the rate approached at saturating substrate.

Tt_Hbd (Thermoanaerobacterium thermosaccharolyticum DSM 571), sequence (chain, as listed by the source): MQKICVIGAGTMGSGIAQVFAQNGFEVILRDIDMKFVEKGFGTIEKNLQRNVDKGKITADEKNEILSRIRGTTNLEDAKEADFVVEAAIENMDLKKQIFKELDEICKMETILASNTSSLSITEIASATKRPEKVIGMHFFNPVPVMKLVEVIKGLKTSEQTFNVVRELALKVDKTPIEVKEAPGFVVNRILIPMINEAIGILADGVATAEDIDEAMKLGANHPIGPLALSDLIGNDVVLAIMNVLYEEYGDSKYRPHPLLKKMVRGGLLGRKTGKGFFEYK
Tt_Hbd (Thermoanaerobacterium thermosaccharolyticum DSM 571; D31A), sequence (chain, as listed by the source D31A): as the sequence (chain, as listed by the source) above, with D31A counted along it

For the substance “Tt_Crt (Thermoanaerobacterium thermosaccharolyticum DSM 571)”, in data set [1], the Km turned out to be 600 ± 100 µM.
In the case of “Tt_Hbd (Thermoanaerobacterium thermosaccharolyticum DSM 571)”, the Km in data set [2] stood at 30 ± 10 µM; in data set [3], 1100 ± 200 µM; in data set [4] it was 50 ± 20 µM. Further, the Vmax in data set [3] was found to be 15.2 µmol/min/mg; in data set [4], 61.4 µmol/min/mg.
In the case of “Tt_Hbd (Thermoanaerobacterium thermosaccharolyticum DSM 571; D31A)”, the figures for the Km in data set [3] and in data set [4] were 30 ± 10 µM and 60 ± 20 µM, respectively. The Vmax in data set [3] stood at 485 µmol/min/mg; in data set [4], 38.5 µmol/min/mg.
